Two substances from patent US20130096276A1 can be followed below.

For this assay, the target named is human immunoglobulin G drug separated from human plasma (Gammagard, Baxter) (human).

C-G29A/D36R.5d (designed binder): the Ka was 3e+08 M⁻¹. The value for C-G29A/K35R/D37E.5d (designed binder) was 6.5e+07 M⁻¹.
